Reference: paper PMC11291249, “Investigating the biosynthesis and roles of the auxin phenylacetic acid during Pseudomonas syringae-Arabidopsis thaliana pathogenesis” (Frontiers in Plant Science, 2024)

Key:
O=CCc1ccccc1 = experiment: purified protein; conditions: 5 mM NAD+, 100 mM Tris-HCl pH 8.0, 100 mM KCl, 25 °C
[1] = system: NC(=O)c1ccc[n+]([C@@H]2O[C@H](COP(=O)(O)OP(=O)(O)OC[C@H]3O[C@@H](n4cnc5c(N)ncnc54)[C@H](O)[C@@H]3O)[C@@H](O)[C@H]2O)c1; experiment: purified protein; conditions: 1 mM PAAld, 100 mM Tris-HCl pH 8.0, 100 mM KCl, 25 °C, varied: cofactor

Question: Which Km (O=CCc1ccccc1) does the source give for “AldA (Pseudomonas syringae pv. tomato str. DC3000)” here?
Answer: 645 ± 113 µM

Question: What about the kcat (O=CCc1ccccc1) of the same substance?
Answer: 18.7 ± 1.3 s⁻¹

Question: What about the kcat/Km (O=CCc1ccccc1) of the same substance?
Answer: 29000 M⁻¹ s⁻¹

Question: What about the Km [1] of the same substance?
Answer: 11.2 ± 1.2 µM

Question: And the kcat [1]?
Answer: 1.4 ± 0.0183 s⁻¹

Question: What about the kcat/Km [1] of the same substance?
Answer: 125000 M⁻¹ s⁻¹
